Earlier results as cited in PMC11677424, “Early-Stage IM Treatment with the Host-Derived Immunostimulant CPDI-02 Increases Curative Protection of Healthy Outbred Mice Against Subcutaneous Infection with Community-Acquired Methicillin-Resistant Staphylococcus aureus USA300” (Pharmaceutics, 2024).

Assays:
[1] = system: primary human neutrophils (NPs); settings: cited from earlier work
Source text: (§1) Complement Peptide-Derived Immunostimulant-02 (CPDI-02) (formerly EP67) is a novel, second-generation host-derived decapeptide agonist of […] (C5) Receptor 1 (C5aR1/C5a1R/CD88), which is based on the C-terminal pharmacophore of human Complement Peptide C5a (hC5a).

[2] = system: primary human mononuclear phagocytes (MPs); settings: primary human MPs; cited from earlier work
Source text: as §1

B1: hC5a: human Complement Peptide C5a, the parent molecule of CPDI-02 (protein, UniProt P01031 678-751, looked up)
C5a anaphylatoxin: TLQKKIEEIAAKYKHSVVKKCCYDGACVNNDETCEQRAARISLGPRCIKAFTECCVVASQLRANISHKDMQLGR
modifications: C5a anaphylatoxin
[1]
  EC50: ~7 nM
[2]
  EC50: ~7 nM
